± gives the standard deviation of the averaged measurements.
System: ATP
Test: switch fluorescence ratio, 500 uM ATP over buffer (Cy3 cluster intensity, sum of 5 cycles each) (fold (ratio)); higher = stronger signal-on switching upon ATP binding; sequences stand for … in TCGTCGGCAGCGTCAGATGTGTATAAGAGACAGTTTTTTTTTTTTTTTTTTTTTTTTT…TC
Settings: aptamer strand: ATP DNA aptamer (quencher-CACCTGGGGGAGTATTGCGGAGGAAGG + anchor), 100 nM annealed; ATP concentration: 500 uM
In short: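 Exposure to 500 uM ATP lasted 15 min at 22 °C before imaging, and a selection-buffer image was taken beforehand, for Cy3-labelled switching-strand clusters on a modified Illumina MiSeq flow-cell annealed to 100 nM quencher-labelled ATP aptamer. Five buffer/ATP cycles were run with NaOH stripping and re-annealing between them. The fluorescence ratio per cluster is summed target-cycle over summed buffer-cycle Cy3 intensity, averaged per switch-domain sequence. Clusters outside 100-1000 RFU were excluded.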

Sequence	switch fluorescence ratio
ACGGACATGG	1.08 ± 0.017
TTGACGGAGA	0.993 ± 0.039
ATATGCAGGA	0.965 ± 0.03
GAATTTTGG	0.9824 ± 0.0032
TTTTGGCACG	0.988 ± 0.0014
TTGTTAGTT	1.02 ± 0.03
GGGGATGGTA	0.978 ± 0.025
GGGGGAATTA	1.01 ± 0.029
GTGGGGTTTG	1.01 ± 0.041
ACGTTGAATG	1.01 ± 0.011
GAAATGGGGT	0.977 ± 0.037
CGTTTTGTTA	0.977 ± 0.028
CATTGGTTGT	0.927 ± 0.025
AGAAATAATC	1.01 ± 0.015
CTTTATTTAG	0.997 ± 0.023
ATATGTTGAG	1 ± 0.017
GGAACGTAGG	1.016 ± 0.0083
ATCCGGTTCG	0.9946 ± 0.0095
TTATTAGTGA	0.9904 ± 0.006
GCTGGGAGTT	1 ± 0.054
CCTTTCTATT	0.99 ± 0.018
CTGTTAGGGG	0.967 ± 0.03
ATGGAAGTG	1.001 ± 0.0015
GTGGGCAGGT	0.988 ± 0.024
CCTGAGGAGA	1.03 ± 0.015

Sequence	switch fluorescence ratio
TGGGCCGGGT	1.03 ± 0.055
GCGATCGTTT	0.992 ± 0.011
AATGTCGACC	1.026 ± 0.0022
TTTTGTCTGC	0.98876 ± 0.00074
AGTTTAAGGA	1.01 ± 0.025
ACCGGATGG	1.03 ± 0.027
ACCTGGAAAA	0.999 ± 0.048
CCAGTATGTT	0.993 ± 0.024
GGGGAGGGGC	1.01 ± 0.065
CTGACTCCAA	2.94 ± 1.6
GATAAGGGGT	0.981 ± 0.035
TGGGGAAAGT	1.03 ± 0.036
CAAATAACGT	0.9893 ± 0.0097
AACCGATGTG	1.01 ± 0.037
CTGGGACAGT	0.995 ± 0.034
TTATTAAATC	1.008 ± 0.0064
CTAGAGGCTG	1.03 ± 0.073
ACGGACAATC	1.47 ± 0.099
GGATCCTGCA	1.04 ± 0.052
ACTGTGCGAC	1.58 ± 0.025
ATAGGGATAG	1.01 ± 0.047
ATATGTGAGG	0.985 ± 0.0073
GACAGCGGCG	1.01 ± 0.032
CTCTACGAGA	0.983 ± 0.015
TGAGGTCAGG	0.982 ± 0.017

Sequence	switch fluorescence ratio
CCAGTATCTG	0.998 ± 0.013
AAATCCGGTT	1.008 ± 0.0028
AACGAAAGGC	1.19 ± 0.012
GGGGGGGGGC	1.03 ± 0.098
TGCGCCTACC	1.28 ± 0.058
AGGGGGTTT	1.02 ± 0.024
TCGGGTGGTT	1 ± 0.016
AACCGTGTGT	0.994 ± 0.013
GGCGCTTCGG	0.967 ± 0.05
GATTCCAAAA	0.975 ± 0.011
GGGACGGGGG	1.06 ± 0.16
CGTCCATATG	1.016 ± 0.0089
ATGATGATGA	1.03 ± 0.02
ATTAGAGTGT	0.965 ± 0.04
TGGTCGGGGG	0.997 ± 0.025
AAGGGGTCGT	1 ± 0.025
AGGGATAGAT	0.99 ± 0.026
TATTGTCCTT	1.019 ± 0.0056
ATGTTATTA	0.975 ± 0.021
AATACATCGG	0.999 ± 0.022
CTGGCATGTA	1.0141 ± 0.00098
ATAGCTCTCG	1.01 ± 0.037
CGAGCAGTAG	3.57 ± 0.31
GAGGATTCGG	0.986 ± 0.026
CGAAAATGGT	1.04 ± 0.13

Sequence	switch fluorescence ratio
TTTTATAAGA	1.05 ± 0.075
TCACGCCGGG	1.04 ± 0.019
CAAGGATTTA	1.02 ± 0.044
TACATCGTTT	1 ± 0.025
TAGAGGTATG	1.01 ± 0.028
CGTTGCAGGG	0.984 ± 0.024
TCACTTATGG	1.03 ± 0.033
CATGGGGCCT	0.9984 ± 0.0027
ATGGTAAAAA	1.05 ± 0.1
CGAGAGGAGT	0.997 ± 0.014
TAAGTATAAT	0.999 ± 0.017
GGGTTTTGTT	1.02 ± 0.029
TAAGCTTTTG	1.025 ± 0.0084
TCTATCAGTG	1.02 ± 0.018
TGATTGCCGG	0.996 ± 0.02
CTTACGTCTG	1.01 ± 0.015
ATTGTAGAGT	0.985 ± 0.026
GAGGCTAGTG	0.988 ± 0.0092
ATTTTGATAT	1.01 ± 0.018
AAACTAACTT	1.01 ± 0.046
GATATTGCTA	0.975 ± 0.03
CTGACCGGGT	1.014 ± 0.0015
GGTATTTATT	1.01 ± 0.019
ATACCCTGGG	1.03 ± 0.035
TGAAGGGGGA	0.995 ± 0.041

Sequence	switch fluorescence ratio
TATTGTAGGG	0.97 ± 0.013
CAGATGGACG	0.968 ± 0.032
TCGAGGAGTT	1.012 ± 0.01
GTTGGGGTAT	1.06 ± 0.11
CCAGGCGGGG	0.9969 ± 0.0046
CATATTTCGG	0.995 ± 0.03
ATGGGCCGAG	0.989 ± 0.04
TCGTAGAGGA	0.995 ± 0.032
ATTGCAGTTG	0.954 ± 0.013
ATCCTAAGGC	1 ± 0.029
TTATCCTTCA	1.27 ± 0.36
GCTTGCGGTC	0.9873 ± 0.0095
GGTTCGAGAG	0.964 ± 0.012
AAAAGCTCGT	1 ± 0.05
TTCGGGGATG	0.991 ± 0.048
GGTCCAACTG	0.987 ± 0.036
GGTTAAGTGC	1.01 ± 0.029
GCTACTGTTA	1.077 ± 0.0025
TCGAGTTGTT	0.988 ± 0.021
AAGTAATTGT	1.01 ± 0.015
TTGGGGTCTG	1.02 ± 0.023
AGGCGGCAGC	0.982 ± 0.02
AACCGTAGTC	1.15 ± 0.049
ATAGGTCTCA	1 ± 0.013
TAAAATAGTC	1.02 ± 0.034

Sequence	switch fluorescence ratio
TTTTGCTGTG	1.01 ± 0.025
AGCCTTACGT	1.115 ± 0.0039
GTTGTTATTG	1.01 ± 0.021
TTTTTGGAGC	1.01 ± 0.016
CGCACGGGGG	1.01 ± 0.031
CATGAGTAAG	1 ± 0.015
GCAACTTATT	0.983 ± 0.022
ATATTTGATT	0.977 ± 0.021
GTCATTTAAG	0.991 ± 0.019
AAAATGCATC	1.04 ± 0.038
CTATGCGTAC	3.51 ± 0.89
AGCATATCGT	1.04 ± 0.033
ATTCTCTTGT	0.996 ± 0.014
AAAGAGTAAT	1.006 ± 0.0045
GGGGGGACGA	1.01 ± 0.033
ACGGCGCTGG	1.02 ± 0.017
CACGGCCGGA	1.03 ± 0.052
GCGACAAGAG	1.03 ± 0.067
TTAGCTACCT	1.11 ± 0.19
AATTTGAGTG	0.977 ± 0.032
AATGGGTAGT	0.991 ± 0.042
TAGGAGGGTG	1.01 ± 0.035
TTACTGCTTT	1.02 ± 0.025
TGATATTATT	1.02 ± 0.015
CTGAGTGCGG	1.02 ± 0.023

Sequence	switch fluorescence ratio
GGCGGTAGAG	1.012 ± 0.0091
ATGAAGTAGG	0.989 ± 0.013
CCTGGTGGAC	1.11 ± 0.058
TGAAGTTGG	1.01 ± 0.019
CGGCTGTATG	0.988 ± 0.035
TAATGGCTT	1.003 ± 0.0022
AAGGGAGGGG	0.987 ± 0.028
ATAAGTGGGA	0.986 ± 0.076
GATCGGGACT	0.9826 ± 0.0047
AATTCAAAAA	1.02 ± 0.021
AATAAAAGAG	0.962 ± 0.018
CTGAGGCGCC	1.01 ± 0.056
GGTCCGGGGA	0.989 ± 0.013
GGAAATCACA	1.01 ± 0.029
TGTTTTTTAA	0.99 ± 0.044
ATGCGTAGGT	0.988 ± 0.049
AATCGTTAAA	0.9812 ± 0.0069
GCGACAGGAC	1.48 ± 0.12
GGGCGTTTCG	1.005 ± 0.0089
TCATTCTGGG	1.008 ± 0.0097
GGAGGGGTGC	1.04 ± 0.032
ATAGGAGTTG	1.033 ± 0.0089
TTAAAATCGC	0.957 ± 0.022
AGGGGCAACT	1 ± 0.048
GCGTTAGTAG	0.9971 ± 0.0082

Sequence	switch fluorescence ratio
CCGGGAGGGG	1.11 ± 0.12
TTCAGGGGGT	1.02 ± 0.054
TCGTATGGGT	1 ± 0.045
TGGGATTATT	1.02 ± 0.019
TATGTTTCGG	0.98 ± 0.011
TCAGGGTGCC	1.017 ± 0.0094
TTCTTTTTGC	0.9678 ± 0.0084
ATGACGAAAA	1.04 ± 0.058
CAGCTAGCGG	0.97 ± 0.025
AGTGTGTGGC	1.01 ± 0.016
ACTTAGTGCC	1.087 ± 0.0073
TCTGAAGGTG	1.28 ± 0.22
GCCGGGCAAC	0.995 ± 0.037
CAAGAGTATT	0.995 ± 0.022
TTGGTGGGGT	1 ± 0.033
TTGCATTTGG	1.01 ± 0.088
AGGGTGGTAG	0.978 ± 0.035
TTCCGACGAT	3.15 ± 2.3
TGAAATATCA	1.0208 ± 0.00019
TGGGCATTTT	0.987 ± 0.025
TCTTTTCGTT	1 ± 0.011
GCTGTCAATC	1.11 ± 0.053
TTACATTTTT	1.05 ± 0.06
GGGGTGGCCT	1 ± 0.027
ACCTTTAAGC	1.106 ± 0.01

Reference: the supplement of paper PMC10126150
